B1: recombinant human galectin-4 (natural protein, UniProt P56470 1-323, looked up)
chain: MAYVPAPGYQPTYNPTLPYYQPIPGGLNVGMSVYIQGVASEHMKRFFVNFVVGQDPGSDVAFHFNPRFDGWDKVVFNTLQGGKWGSEERKRSMPFKKGAAFELVFIVLAEHYKVVVNGNPFYEYGHRLPLQMVTHLQVDGDLQLQSINFIGGQPLRPQGPPMMPPYPGPGHCHQQLNSLPTMEGPPTFNPPVPYFGRLQGGLTARRTIIIKGYVPPTGKSFAINFKVGSSGDIALHINPRMGNGTVVRNSLLNGSWGSEEKKITHNPFGPGQFFDLSIRCGLDRFKVYANGQHLFDFAHRLSAFQRVDTLEIQGDVTLSYVQI
notes: also called GAL4
B2: H6 flagella (polymeric FliC flagellin) of E. coli O127:H6 (natural protein)
chain: MAQVINTNSLSLITQNNINKNQSALSSSIERLSSGLRINSAKDDAAGQAIANRFTSNIKGLTQAARNANDGISVAQTTEGALSEINNNLQRIRELTVQASTGTNSDSDLDSIQDEIKSRLDEIDRVSGQTQFNGVNVLAKDGSMKIQVGANDGQTITIDLKKIDSDTLGLNGFNVNGKGETANTAATLKDMSGFTAAAAPGGTVGVTQYTDKSAVASSVDILNAVAGADGNKVTTSADVGFGTPAAAVTYTYNKDTNSYSAASDDISSANLAAFLNPQARDTTKATVTIGGKDQDVNIDKSGNLTAADDGAVLYMDATGNLTKNNAGGDTQATLAKVATATGAKAATIQTDKGTFTSDGTAFDGASMSIDANTFANAVKNDTYTATVGAKTYSVTTGSAAADTAYMSNGVLSDTPPTYYAQADGSITTTEDAAAGKLVYKGSDGKLTTDTTSKAESTSDPLAALDDAISQIDKFRSSLGAVQNRLDSAVTNLNNTTTNLSEAQSRIQDADYATEVSNMSKAQIIQQAGNSVLAKANQVPQQVLSLLQG

What was measured:
[1] = molecular target: B2; experiment: ELISA; conditions: both partners purified
SEC = molecular target: the molecule itself; experiment: SEC

Binder	binding result [1]	binding result (SEC)
B1	binds	–
B2	–	binds

Source: article PMC7660914 (Microbiology, 2020)
